Experiments:
[1] = target: antitoxin PrpA^FL (Pseudoalteromonas rubra); test: SEC-MALS; purified PrpTA complex, PrpA^FL and PrpA^2–54 samples (Figure 1A); buffer of these runs not told
[2] = target: antitoxin PrpA^FL (Pseudoalteromonas rubra); test: crystal structure; PrpTA complex, ~3.6 mg/ml in 0.1 M NaCl, 0.05 M Tris pH 8.0; sitting drop, 16°C; molecular replacement
[3] = target: truncated antitoxin PrpA^2–54 (Pseudoalteromonas rubra); test: SEC-MALS; PrpA^2–54 in phosphate buffer (PB), 100 mM NaH2PO4/Na2HPO4 pH 8.0
[4] = target: truncated antitoxin PrpA^2–54 (Pseudoalteromonas rubra); test: SEC-MALS; purified PrpTA complex, PrpA^FL and PrpA^2–54 samples (Figure 1A); buffer of these runs not told
[5] = target: truncated antitoxin PrpA^2–54 (Pseudoalteromonas rubra); test: SEC-MALS; PrpA^2–54 at increased protein concentration (within a limited range; concentrations not given)
[6] = target: truncated antitoxin PrpA^2–54 (Pseudoalteromonas rubra); test: crystal structure; PrpA^2–54 form I and form II, ~5.2 mg/ml in 0.1 M NaCl, 0.05 M Tris pH 8.0; sitting drop, 16°C; molecular replacement with VcParD2 (PDB 7B22)

Row | Substance | stoichiometry N [1] | stoichiometry N [2] | stoichiometry N [3] | stoichiometry N [4] | stoichiometry N [5] | stoichiometry N [6]
1 | antitoxin PrpA^FL (natural protein) | 4 | 2 |  |  |  | 
2 | truncated antitoxin PrpA^2–54 (domain or fragment) |  |  | 4 | 2 | 6 | 16
